From PMC3695512, “Recognition of two distinct elements in the RNA substrate by the RNA-binding domain of the T. thermophilus DEAD box helicase Hera”

Legend:
[1] = molecular target: T1, Hera_1-491 (Thermus thermophilus, UniProt O07897 1-491, del492-510); assay: fluorescence anisotropy; 5 mM Mg2+; Anisotropy: 50 mM Tris/HCl pH 7.5, 150 mM NaCl, 5 mM MgCl2 (Fig 2), 25 C, 50 nM RNA; EMSA: same Tris/NaCl, 12% glycerol, 25 C; NMR: 25 mM Bis-Tris/HCl pH 6.0, 50 mM NaCl, 10% D2O, 37 C; details: protein: recombinant; chain copies: 2; label: 5'-fluorescein; hairpin with 5' single strand
T1 sequence: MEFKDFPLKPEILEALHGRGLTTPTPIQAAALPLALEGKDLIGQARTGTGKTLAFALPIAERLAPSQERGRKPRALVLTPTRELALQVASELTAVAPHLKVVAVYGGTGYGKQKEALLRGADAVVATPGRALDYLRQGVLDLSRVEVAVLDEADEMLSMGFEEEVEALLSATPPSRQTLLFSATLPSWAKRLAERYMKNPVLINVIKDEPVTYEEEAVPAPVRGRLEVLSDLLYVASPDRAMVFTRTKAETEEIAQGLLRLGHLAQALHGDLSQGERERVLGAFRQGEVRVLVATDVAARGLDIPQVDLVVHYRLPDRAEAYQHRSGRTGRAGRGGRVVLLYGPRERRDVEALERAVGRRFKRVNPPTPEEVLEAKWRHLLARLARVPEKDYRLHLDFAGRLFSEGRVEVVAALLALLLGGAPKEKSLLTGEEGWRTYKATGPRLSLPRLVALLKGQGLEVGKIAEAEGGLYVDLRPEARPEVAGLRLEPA

[2] = molecular target: T2, Hera_RBD S446C (Thermus thermophilus, UniProt O07897 424-510, S446C); assay: as above; details: protein: recombinant; label: 5'-fluorescein; hairpin with 5' single strand
T2 sequence: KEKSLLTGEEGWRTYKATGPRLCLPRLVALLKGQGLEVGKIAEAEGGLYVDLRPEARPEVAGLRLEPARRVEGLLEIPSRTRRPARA

[3] = molecular target: T3, Hera_RBD R492A (Thermus thermophilus, UniProt O07897 424-510, R492A); assay: as above; details: protein: recombinant; label: 5'-fluorescein; hairpin with 5' single strand
T3 sequence: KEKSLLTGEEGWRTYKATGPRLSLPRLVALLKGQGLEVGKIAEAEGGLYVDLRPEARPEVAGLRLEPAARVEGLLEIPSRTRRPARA

[4] = molecular target: T4, Hera_RBD R444A/R449A (Thermus thermophilus, UniProt O07897 424-510, R444A;R449A); assay: as above; details: protein: recombinant; label: 5'-fluorescein; hairpin with 5' single strand
T4 sequence: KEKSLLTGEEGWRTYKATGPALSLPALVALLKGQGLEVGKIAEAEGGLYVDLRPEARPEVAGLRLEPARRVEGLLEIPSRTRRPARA

[5] = molecular target: T5, Hera_RBD Q457C (Thermus thermophilus, UniProt O07897 424-510, Q457C); assay: as above; details: protein: recombinant; label: 5'-fluorescein; hairpin with 5' single strand
T5 sequence: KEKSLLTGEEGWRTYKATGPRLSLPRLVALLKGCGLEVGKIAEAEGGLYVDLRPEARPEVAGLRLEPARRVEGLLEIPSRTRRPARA

[6] = molecular target: T6, Hera_RBD R487A (Thermus thermophilus, UniProt O07897 424-510, R487A); assay: as above; details: protein: recombinant; label: 5'-fluorescein; hairpin with 5' single strand
T6 sequence: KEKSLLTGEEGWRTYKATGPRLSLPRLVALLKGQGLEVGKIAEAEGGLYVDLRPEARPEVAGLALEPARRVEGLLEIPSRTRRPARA

[7] = molecular target: T7, Hera_RBD K439A (Thermus thermophilus, UniProt O07897 424-510, K439A); assay: as above; details: protein: recombinant; label: 5'-fluorescein; hairpin with 5' single strand
T7 sequence: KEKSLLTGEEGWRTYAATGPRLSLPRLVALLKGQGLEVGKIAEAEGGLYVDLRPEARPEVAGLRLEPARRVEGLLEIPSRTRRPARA

[8] = molecular target: T8, Hera_RBD G462C (Thermus thermophilus, UniProt O07897 424-510, G462C); assay: fluorescence anisotropy; 5 mM Mg2+; negligible effect; Anisotropy: 50 mM Tris/HCl pH 7.5, 150 mM NaCl, 5 mM MgCl2 (Fig 2), 25 C, 50 nM RNA; EMSA: same Tris/NaCl, 12% glycerol, 25 C; NMR: 25 mM Bis-Tris/HCl pH 6.0, 50 mM NaCl, 10% D2O, 37 C; details: protein: recombinant; label: 5'-fluorescein; hairpin with 5' single strand
T8 sequence: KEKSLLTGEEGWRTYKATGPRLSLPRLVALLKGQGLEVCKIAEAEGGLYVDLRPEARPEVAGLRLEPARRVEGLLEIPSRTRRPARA

## GCAGGUCCCAAGGGUUGGGCUGUUCGCCCAUU (structured_RNA) [32mer]
[1]
  Kd: 1100 ± 130 nM
[2]
  binding signal: < 5 fold Kd increase
[3]
  binding signal: < 5 fold Kd increase
[4]
  binding signal: > 25 fold Kd increase
[5]
  binding signal: < 5 fold Kd increase
[6]
  binding signal: < 5 fold Kd increase
[7]
  binding signal: < 5 fold Kd increase
[8]
  binding signal: < 5 fold Kd increase
